The values below come from US20120039802A1 (published 2012).

T2 sequence (P08581 25-1390): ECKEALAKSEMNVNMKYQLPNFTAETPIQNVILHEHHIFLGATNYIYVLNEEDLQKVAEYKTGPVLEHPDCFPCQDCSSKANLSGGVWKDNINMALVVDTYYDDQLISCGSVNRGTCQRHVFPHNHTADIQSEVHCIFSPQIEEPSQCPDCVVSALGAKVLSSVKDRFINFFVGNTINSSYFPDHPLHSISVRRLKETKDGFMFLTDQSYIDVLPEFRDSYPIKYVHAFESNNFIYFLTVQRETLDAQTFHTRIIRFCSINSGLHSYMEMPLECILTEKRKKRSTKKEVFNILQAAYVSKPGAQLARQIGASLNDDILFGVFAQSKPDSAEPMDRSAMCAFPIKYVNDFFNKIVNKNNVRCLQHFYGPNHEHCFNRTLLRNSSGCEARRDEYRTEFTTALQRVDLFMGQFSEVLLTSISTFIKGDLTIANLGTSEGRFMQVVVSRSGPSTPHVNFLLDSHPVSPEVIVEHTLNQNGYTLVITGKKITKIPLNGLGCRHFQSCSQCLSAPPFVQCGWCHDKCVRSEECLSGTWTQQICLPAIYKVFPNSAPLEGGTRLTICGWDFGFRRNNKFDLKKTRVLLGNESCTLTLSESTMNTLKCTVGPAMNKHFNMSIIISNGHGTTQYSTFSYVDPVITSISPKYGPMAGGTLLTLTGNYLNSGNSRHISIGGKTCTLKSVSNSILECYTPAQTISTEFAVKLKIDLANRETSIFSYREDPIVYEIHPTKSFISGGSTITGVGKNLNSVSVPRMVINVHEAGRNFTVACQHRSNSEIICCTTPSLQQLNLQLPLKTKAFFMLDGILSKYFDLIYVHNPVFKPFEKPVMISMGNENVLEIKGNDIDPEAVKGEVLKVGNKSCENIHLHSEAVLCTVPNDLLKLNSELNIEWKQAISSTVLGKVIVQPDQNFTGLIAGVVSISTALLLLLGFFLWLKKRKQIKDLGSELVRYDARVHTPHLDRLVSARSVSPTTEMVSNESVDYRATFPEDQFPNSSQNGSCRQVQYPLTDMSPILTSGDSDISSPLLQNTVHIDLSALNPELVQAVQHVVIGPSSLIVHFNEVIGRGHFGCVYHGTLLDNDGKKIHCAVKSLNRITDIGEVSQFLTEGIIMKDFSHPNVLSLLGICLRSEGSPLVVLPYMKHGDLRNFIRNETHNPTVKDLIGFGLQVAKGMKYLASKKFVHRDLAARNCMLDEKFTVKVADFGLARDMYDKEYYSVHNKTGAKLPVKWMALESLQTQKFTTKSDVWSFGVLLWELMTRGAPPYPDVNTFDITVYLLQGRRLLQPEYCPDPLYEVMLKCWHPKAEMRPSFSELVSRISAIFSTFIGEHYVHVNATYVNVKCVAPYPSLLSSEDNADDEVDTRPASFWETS
T1 sequence (P08581 25-932): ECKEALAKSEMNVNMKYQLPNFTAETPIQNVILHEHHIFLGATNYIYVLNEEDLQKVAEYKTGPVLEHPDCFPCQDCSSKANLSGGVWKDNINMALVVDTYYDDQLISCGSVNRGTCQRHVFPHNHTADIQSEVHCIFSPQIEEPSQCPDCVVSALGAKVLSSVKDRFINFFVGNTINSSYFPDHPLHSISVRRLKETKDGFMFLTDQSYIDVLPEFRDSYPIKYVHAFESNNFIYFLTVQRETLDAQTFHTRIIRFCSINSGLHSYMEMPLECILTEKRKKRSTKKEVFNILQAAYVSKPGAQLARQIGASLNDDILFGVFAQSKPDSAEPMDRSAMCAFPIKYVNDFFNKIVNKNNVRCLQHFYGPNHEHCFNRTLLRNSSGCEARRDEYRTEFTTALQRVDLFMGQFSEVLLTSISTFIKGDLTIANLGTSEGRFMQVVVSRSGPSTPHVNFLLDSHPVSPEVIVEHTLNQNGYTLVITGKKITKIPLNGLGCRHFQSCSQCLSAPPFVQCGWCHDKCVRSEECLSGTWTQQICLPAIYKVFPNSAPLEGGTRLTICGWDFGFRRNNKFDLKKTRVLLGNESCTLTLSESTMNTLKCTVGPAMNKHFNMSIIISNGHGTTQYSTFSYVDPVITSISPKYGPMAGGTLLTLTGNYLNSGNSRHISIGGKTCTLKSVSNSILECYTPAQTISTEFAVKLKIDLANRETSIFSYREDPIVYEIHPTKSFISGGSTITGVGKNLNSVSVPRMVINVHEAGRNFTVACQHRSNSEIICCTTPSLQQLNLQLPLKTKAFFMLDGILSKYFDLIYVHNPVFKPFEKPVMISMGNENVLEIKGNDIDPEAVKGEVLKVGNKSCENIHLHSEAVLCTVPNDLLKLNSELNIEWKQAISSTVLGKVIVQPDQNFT

The first test has as its target T1, cMet-Fc fusion protein (extracellular domain of the cMet receptor expressed as an Fc-fusion protein) (human, UniProt P08581 25-932).
T1 construct: extracellular domain; also called soluble cMet-Fc-fusion protein; soluble cMet receptor; not shown: Fc part
Nature of the test: phage ELISA, cMet-Fc vs TRAIL-Fc. Summed up:
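Plates coated overnight at 4 C with 0.5 μg/mL cMet-Fc, or TRAIL-Fc as background, were blocked with 3% BSA in PBST. Peptide-displaying phage were bound 2 h at room temperature. Bound phage were detected with HRP-conjugated anti-M13 antibody.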
(In general: An ELISA detects its analyte on a solid surface through an enzyme-linked reagent.)
Take AQRWSSPGMSQSFVLEWKWNDN [118-A08 peptide-displaying phage (SEQ ID NO: 453)]: the “Protein ELISA (fold over background)” value was 11.3 fold.
On the same count and under the same terms, the figure for GDHRKCEISAKTHEVTCYDNDP [545-F04 peptide-displaying phage (SEQ ID NO: 402)] is 5.2 fold; for GDNRFCSWVYNVDDWWCVDNDP [332-H09 peptide-displaying phage (SEQ ID NO: 398)] it is 6.2 fold; for AQIQGIQKTEQGEFYWFNWFPA [528-F05 peptide-displaying phage (SEQ ID NO: 450)] it is 4.3 fold.
For the molecule GDPWWCFEKDSFIPFACWHHDP [330-G02 peptide-displaying phage (SEQ ID NO: 396)], the “Protein ELISA (fold over background)” value worked out at 7.4 fold.
On the same count and under the same terms, the figure for AQQASRFTFTDGDSYWWFEDF [525-A07 peptide-displaying phage (SEQ ID NO: 449)] is 7 fold.
On the same count and under the same terms, as for GDLLGCGYQEKGGEYKCRFNDP [334-F05 peptide-displaying phage (SEQ ID NO: 395)], the figure is 13.5 fold; as for AQREVEEPYWYLDFLSSWRMHE [524-E09 peptide-displaying phage (SEQ ID NO: 451)], 8.2 fold; as for GSFWNCTTDLGAMSDCGFFAP [445-E07 peptide-displaying phage (SEQ ID NO: 383)], 3.1 fold.
On the same count and under the same terms, the figure for GSAGWCYTMNYVDQLCTYMAP [445-E11 peptide-displaying phage (SEQ ID NO: 387)] is 3.7 fold; for GDHLTCEFRDDGWKEHCWWSDP [552-F06 peptide-displaying phage (SEQ ID NO: 403)] it is 11.1 fold.
With GDYYQCQFSKDMYSERCWPYDP [316-F08 peptide-displaying phage (SEQ ID NO: 397)], the “Protein ELISA (fold over background)” value was found to be 7 fold.
Still for that read-out and setting: the figure for AGDGWCMAWPEICEWLGT [434-E12 peptide-displaying phage (SEQ ID NO: 014)] is 4.8 fold; for GSDMNCTVLAQDQIFCFREAP [451-C06 peptide-displaying phage (SEQ ID NO: 386)] it is 3 fold.

A further test concerns the target T2, human cMet expressed on 3T3 cells (human, UniProt P08581 25-1390).
T2 construct: whole, on cells; cells fixed with glutaraldehyde; also called cell surface-expressed human cMet; 3T3 cells that over-express human cMet
Nature of the test: whole cell phage ELISA, 3T3 human cMet vs 3T3. Summed up:
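3T3 cells over-expressing human cMet, compared against parental 3T3, seeded at 10⁵ per well and fixed with 0.1% glutaraldehyde for 12 min at 37 C. Blocked peptide-displaying phage bound for 1 h at room temperature. After PBST washes, bound phage was detected with HRP-conjugated anti-M13 antibody.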
On to AQRWSSPGMSQSFVLEWKWNDN [118-A08 peptide-displaying phage (SEQ ID NO: 453)], for which the “WC ELISA (fold over background)” value came out at 1.3 fold.
The same measure, in the same setting: the figure for GDHRKCEISAKTHEVTCYDNDP [545-F04 peptide-displaying phage (SEQ ID NO: 402)] is 1.17 fold; for GDNRFCSWVYNVDDWWCVDNDP [332-H09 peptide-displaying phage (SEQ ID NO: 398)] it is 1.3 fold.
Still for that read-out and setting: the figure for AQIQGIQKTEQGEFYWFNWFPA [528-F05 peptide-displaying phage (SEQ ID NO: 450)] is 1.1 fold.
The same measure, in the same setting: the figure for GDPWWCFEKDSFIPFACWHHDP [330-G02 peptide-displaying phage (SEQ ID NO: 396)] is 1.3 fold.
For AQQASRFTFTDGDSYWWFEDF [525-A07 peptide-displaying phage (SEQ ID NO: 449)], the “WC ELISA (fold over background)” value was 1.17 fold.
On the same count and under the same terms, the figure for GDLLGCGYQEKGGEYKCRFNDP [334-F05 peptide-displaying phage (SEQ ID NO: 395)] is 1.4 fold; for AQREVEEPYWYLDFLSSWRMHE [524-E09 peptide-displaying phage (SEQ ID NO: 451)] it is 1.33 fold; for GSFWNCTTDLGAMSDCGFFAP [445-E07 peptide-displaying phage (SEQ ID NO: 383)] it is 1.37 fold.
Still for that read-out and setting: as for GSAGWCYTMNYVDQLCTYMAP [445-E11 peptide-displaying phage (SEQ ID NO: 387)], the figure is 1.43 fold.
The same measure, in the same setting: as for GDHLTCEFRDDGWKEHCWWSDP [552-F06 peptide-displaying phage (SEQ ID NO: 403)], the figure is 1.23 fold.
Regarding GDYYQCQFSKDMYSERCWPYDP [316-F08 peptide-displaying phage (SEQ ID NO: 397)], the “WC ELISA (fold over background)” value is 1.3 fold.
AGDGWCMAWPEICEWLGT [434-E12 peptide-displaying phage (SEQ ID NO: 014)]: the “WC ELISA (fold over background)” value was 1.33 fold.
The same measure, in the same setting: as for GSDMNCTVLAQDQIFCFREAP [451-C06 peptide-displaying phage (SEQ ID NO: 386)], the figure is 1.37 fold.

Another test addresses T1, cMet-Fc fusion protein (extracellular …). Nature of the test: phage ELISA on cMet-Fc, competitor HGF 100 ng/mL. The method in brief: (§1)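 Plates coated with 0.5 μg/mL cMet-Fc, with TRAIL-Fc as background, then blocked with 3% BSA. Bound phage detected with HRP anti-M13 antibody.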
In the case of AQRWSSPGMSQSFVLEWKWNDN [118-A08 peptide-displaying phage (SEQ ID NO: 453)], the “% of binding in the absence of HGF” value amounted to 85%.
With GDHRKCEISAKTHEVTCYDNDP [545-F04 peptide-displaying phage (SEQ ID NO: 402)], the “% of binding in the absence of HGF” value stood at 143%.
The same measure, in the same setting: as for GDNRFCSWVYNVDDWWCVDNDP [332-H09 peptide-displaying phage (SEQ ID NO: 398)], the figure is 50%; as for AQIQGIQKTEQGEFYWFNWFPA [528-F05 peptide-displaying phage (SEQ ID NO: 450)], 84%; as for GDPWWCFEKDSFIPFACWHHDP [330-G02 peptide-displaying phage (SEQ ID NO: 396)], 37%.
On the same count and under the same terms, as for AQQASRFTFTDGDSYWWFEDF [525-A07 peptide-displaying phage (SEQ ID NO: 449)], the figure is 93%; as for GDLLGCGYQEKGGEYKCRFNDP [334-F05 peptide-displaying phage (SEQ ID NO: 395)], 58%.
In the case of AQREVEEPYWYLDFLSSWRMHE [524-E09 peptide-displaying phage (SEQ ID NO: 451)], the “% of binding in the absence of HGF” value is 100%.
The same measure, in the same setting: as for GSFWNCTTDLGAMSDCGFFAP [445-E07 peptide-displaying phage (SEQ ID NO: 383)], the figure is 82%; as for GSAGWCYTMNYVDQLCTYMAP [445-E11 peptide-displaying phage (SEQ ID NO: 387)], 69%; as for GDHLTCEFRDDGWKEHCWWSDP [552-F06 peptide-displaying phage (SEQ ID NO: 403)], 82%.
On the same count and under the same terms, the figure for GDYYQCQFSKDMYSERCWPYDP [316-F08 peptide-displaying phage (SEQ ID NO: 397)] is 72%; for AGDGWCMAWPEICEWLGT [434-E12 peptide-displaying phage (SEQ ID NO: 014)] it is 117%; for GSDMNCTVLAQDQIFCFREAP [451-C06 peptide-displaying phage (SEQ ID NO: 386)] it is 108%.

The target is the same in a further test. In words: phage ELISA on cMet-Fc, competitor HGF 500 ng/mL. Summed up: as §1
With AQRWSSPGMSQSFVLEWKWNDN [118-A08 peptide-displaying phage (SEQ ID NO: 453)], the “% of binding in the absence of HGF” value amounted to 74%.
Still for that read-out and setting: the figure for GDHRKCEISAKTHEVTCYDNDP [545-F04 peptide-displaying phage (SEQ ID NO: 402)] is 114%.
On to GDNRFCSWVYNVDDWWCVDNDP [332-H09 peptide-displaying phage (SEQ ID NO: 398)], for which the “% of binding in the absence of HGF” value turned out to be 43%.
The same measure, in the same setting: as for AQIQGIQKTEQGEFYWFNWFPA [528-F05 peptide-displaying phage (SEQ ID NO: 450)], the figure is 81%; as for GDPWWCFEKDSFIPFACWHHDP [330-G02 peptide-displaying phage (SEQ ID NO: 396)], 31%; as for AQQASRFTFTDGDSYWWFEDF [525-A07 peptide-displaying phage (SEQ ID NO: 449)], 88%.
Same read-out and setting: as for GDLLGCGYQEKGGEYKCRFNDP [334-F05 peptide-displaying phage (SEQ ID NO: 395)], the figure is 29%.
On the same count and under the same terms, the figure for AQREVEEPYWYLDFLSSWRMHE [524-E09 peptide-displaying phage (SEQ ID NO: 451)] is 93%; for GSFWNCTTDLGAMSDCGFFAP [445-E07 peptide-displaying phage (SEQ ID NO: 383)] it is 64%.
GSAGWCYTMNYVDQLCTYMAP [445-E11 peptide-displaying phage (SEQ ID NO: 387)]: the “% of binding in the absence of HGF” value stood at 79%.
Same read-out and setting: as for GDHLTCEFRDDGWKEHCWWSDP [552-F06 peptide-displaying phage (SEQ ID NO: 403)], the figure is 32%; as for GDYYQCQFSKDMYSERCWPYDP [316-F08 peptide-displaying phage (SEQ ID NO: 397)], 38%.
Still for that read-out and setting: the figure for AGDGWCMAWPEICEWLGT [434-E12 peptide-displaying phage (SEQ ID NO: 014)] is 41%; for GSDMNCTVLAQDQIFCFREAP [451-C06 peptide-displaying phage (SEQ ID NO: 386)] it is 86%.
